For experiment [1], the target named is SCG5 tagged with cYFP (UniProt P27682). Briefly: PLA. The following applies: n = 4 independent experiments, n = 8 independent images quantified; parent: est. 100; read off a plot.
The target of experiment [2] is SEC24A tagged with Myc. The experiment in a line: PLA. The note with it: n = 3 independent experiments, n = 8 independent images quantified; parent: est. 4.5; read off a plot.
For experiment [3], the target named is proinsulin tagged with C-terminal segment of YFP (cYFP) (UniProt P01322). Briefly: BiFC quantified by flow cytometry. The note with it: n = 5 independent experiments; parent: est. 100; read off a plot. Background: A flow cytometer gives signals particle by particle.
For experiment [4], the target named is SCG5 tagged with cYFP (UniProt P27682). The experiment in a line: BiFC quantified by flow cytometry. The following applies: n = 5 independent experiments; parent: est. 100; read off a plot.
Experiment [5] concerns the target NPY tagged with cYFP (UniProt P07808). The experiment in a line: BiFC quantified by flow cytometry. The following applies: n = 5 independent experiments; parent: est. 100; read off a plot.
Experiment [6] deals with CPE tagged with cYFP (UniProt P15087). The experiment in a line: BiFC quantified by flow cytometry. The following applies: n = 5 independent experiments; parent: est. 100; read off a plot.
Sequence of UniProt P15087 (P15087 28-476): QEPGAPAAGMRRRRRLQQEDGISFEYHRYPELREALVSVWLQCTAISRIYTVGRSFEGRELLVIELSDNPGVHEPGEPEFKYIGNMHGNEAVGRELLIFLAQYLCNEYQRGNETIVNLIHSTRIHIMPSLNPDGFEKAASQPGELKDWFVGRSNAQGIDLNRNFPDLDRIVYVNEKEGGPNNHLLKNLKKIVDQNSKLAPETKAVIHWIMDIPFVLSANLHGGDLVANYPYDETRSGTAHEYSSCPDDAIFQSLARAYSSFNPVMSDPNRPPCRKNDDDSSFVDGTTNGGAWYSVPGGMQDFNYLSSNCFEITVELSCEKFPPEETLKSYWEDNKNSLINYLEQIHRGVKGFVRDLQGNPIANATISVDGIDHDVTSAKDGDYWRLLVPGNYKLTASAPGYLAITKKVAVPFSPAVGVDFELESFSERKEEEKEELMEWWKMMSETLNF

Sequence of UniProt P27682 (P27682 25-210): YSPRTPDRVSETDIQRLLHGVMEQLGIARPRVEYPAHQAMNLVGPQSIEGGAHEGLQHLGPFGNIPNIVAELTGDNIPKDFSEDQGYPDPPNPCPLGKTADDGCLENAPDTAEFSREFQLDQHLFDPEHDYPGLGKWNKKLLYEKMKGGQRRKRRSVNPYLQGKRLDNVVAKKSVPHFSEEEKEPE
Sequence of UniProt P01322 (P01322 25-110): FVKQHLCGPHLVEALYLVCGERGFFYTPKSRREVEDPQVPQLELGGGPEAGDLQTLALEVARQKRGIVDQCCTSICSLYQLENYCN

Regarding HA-tagged WFS1 G695V, the response (puncta (>1µm2) per cell) in experiment [1] is 35.

HA-tagged WFS1 E830A: the response (puncta (>1µm2) per cell) in experiment [1] turned out to be 7.

For HA-tagged WFS1 E158K, the response (puncta (>1µm2) per cell) in experiment [2] worked out at 0.13.

Turning to “WFS1 tagged with N-terminal segment of YFP (nYFP) E809K”, the percent of parent in experiment [3] came out at 70%; in experiment [4], 71%; in experiment [5] it was 41%; in experiment [6], 46%.

With HA-tagged WFS1 E809K, the response (puncta (>1µm2) per cell) in experiment [1] was found to be 56.

Turning to “WFS1 tagged with N-terminal segment of YFP (nYFP) P724L”, the percent of parent in experiment [3] was determined as 61%; in experiment [4] it was 54%; in experiment [5], 49%; in experiment [6], 71%.

As for HA-tagged WFS1 P724L, the response (puncta (>1µm2) per cell) in experiment [1] is 55.

For the substance HA-tagged WFS1 E169K, in experiment [2], the response (puncta (>1µm2) per cell) was found to be 0.13.

On to “WFS1 tagged with N-terminal segment of YFP (nYFP) G695V”, for which the percent of parent was 42% in experiment [3], 56% in experiment [4], 33% in experiment [5] and 41% in experiment [6].

For “WFS1 tagged with N-terminal segment of YFP (nYFP) E830A”, the percent of parent was determined as 23% in experiment [3], 8% in experiment [4], 3% in experiment [5] and 2% in experiment [6].

The values are drawn from publication PMC8632972.
